# Assay results: patent US20120121591A1 (priority 2009, published 2012)
# Where two headings read alike, the source gives them in different places.
# Legend:
# [1] = target: human Kv1.3 (Homo sapiens, UniProt P22001); assay: cell-based or functional assay
# [2] = target: hKv1.3 (Homo sapiens, UniProt P22001); assay: cell-based; format: cell-based; settings: Kv1.3 (IWQ) IC50 (nM, Avg)
# [3] = tested on: IL-2 secretion from T cells in human whole blood; format: cell-based; settings: read-out: WB (IL-2) IC50 (nM, Avg)
# [4] = tested on: IFN-g secretion from T cells in human whole blood; format: cell-based
# [5] = read-out: WB (IFNg) IC50 (nM, Avg)
# Sequence of hKv1.3 (P22001 whole entry): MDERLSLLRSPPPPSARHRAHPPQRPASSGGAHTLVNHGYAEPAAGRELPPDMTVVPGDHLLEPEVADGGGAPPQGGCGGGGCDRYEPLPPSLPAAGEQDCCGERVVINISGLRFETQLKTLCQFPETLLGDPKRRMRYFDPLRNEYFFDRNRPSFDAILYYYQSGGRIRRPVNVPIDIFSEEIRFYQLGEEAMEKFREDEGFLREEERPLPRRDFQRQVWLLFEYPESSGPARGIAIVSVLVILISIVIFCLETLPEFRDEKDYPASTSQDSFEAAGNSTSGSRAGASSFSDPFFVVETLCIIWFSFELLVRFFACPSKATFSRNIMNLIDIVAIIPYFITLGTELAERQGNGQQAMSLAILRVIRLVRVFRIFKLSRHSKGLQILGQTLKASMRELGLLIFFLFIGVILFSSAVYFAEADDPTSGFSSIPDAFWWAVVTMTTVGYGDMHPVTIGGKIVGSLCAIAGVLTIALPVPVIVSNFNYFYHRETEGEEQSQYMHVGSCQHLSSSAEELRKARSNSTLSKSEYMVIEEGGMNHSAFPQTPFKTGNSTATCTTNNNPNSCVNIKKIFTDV
# Sequence of human Kv1.3 (P22001 whole entry): as above
Compound,Kv1.3 (IWQ) IC50 [1],WB (IFNg) IC50 [1],WB (IL-2) IC50 [1],also measured
[1-Nal20]ShK (peptide),2.11 nM,100 nM,100 nM,
[1-Nal21]ShK (peptide),0.669 nM,8.13 nM,6.59 nM,
[1-Nal34]ShK (peptide),0.077 nM,0.063 nM,0.018 nM,
[1-Nal10]ShK (peptide),0.206 nM,0.255 nM,0.205 nM,
[1-Nal25]ShK (peptide),0.106 nM,0.084 nM,0.061 nM,
FcLoop(ShK).L25.Fc (Fc fusion),,,,In vitro whole blood assay (inhibition of IL-2) IC50 [1]: 1.91 nM
[1-Nal6]ShK (peptide),0.15 nM,0.962 nM,0.86 nM,
[1-Nal14]ShK (peptide),,0.11 nM,0.089 nM,
[1-Nal18]ShK (peptide),0.471 nM,0.375 nM,0.419 nM,
[1-Nal7]ShK (peptide),0.699 nM,18 nM,11.6 nM,
[1-Nal5]ShK (peptide),,31.9 nM,70.4 nM,
[1-Nal27]ShK (peptide),0.144 nM,2.84 nM,1.07 nM,
FcLoopShk/FcLoopShk (bivalent Fc) (Fc fusion),,,,In vitro whole blood assay (inhibition of IL-2) IC50 [1]: 2 nM
Fc.L20.FcLoop(ShK) (Fc fusion),,,,In vitro whole blood assay (inhibition of IL-2) IC50 [1]: 2.01 nM
[1-Nal26]ShK (peptide),0.352 nM,0.573 nM,0.357 nM,
[1-Nal29]ShK (peptide),,8.08 nM,4.72 nM,
20kDaPEG-[1-Nal16]ShK (peptide),39.1 nM,100 nM,100 nM,
[1-Nal11]ShK (peptide),0.922 nM,1.65 nM,1.14 nM,
[1-Nal4]ShK (peptide),0.15 nM,0.317 nM,0.274 nM,
CC[C@H](C)[C@@H]1NC(=O)[C@@H](NC(=O)[C@H](CO)NC(=O)[C@@H](N)CCCNC(=N)N)CSSC[C@@H](C(=O)O)NC(=O)[C@H]([C@@H](C)O)NC(=O)CNC(=O)[C@@H]2CSSC[C@@H]3NC(=O)[C@H](CCC(N)=O)NC(=O)[C@H](Cc4ccccc4)NC(=O)[C@H](C)NC(=O)[C@H]([C@@H](C)O)NC(=O)[C@H](CSSC[C@H](NC(=O)[C@H](Cc4ccccc4)NC(=O)[C@H](CO)NC(=O)[C@H](C)NC(=O)[C@H](CCCNC(=N)N)NC(=O)[C@H](Cc4ccc(O)cc4)NC(=O)[C@H](CCCCN)NC(=O)[C@H](CCSC)NC(=O)[C@H](CO)NC(=O)[C@H](Cc4c[nH]cn4)NC(=O)[C@H](CCCCN)NC3=O)C(=O)N[C@@H](CCCNC(=N)N)C(=O)N[C@@H](CCCCN)C(=O)N[C@@H]([C@@H](C)O)C(=O)N2)NC(=O)[C@H](CCCNC(=N)N)NC(=O)[C@H](CO)NC(=O)[C@H](CCCCN)NC(=O)[C@@H]2CCCN2C(=O)[C@H]([C@@H](C)CC)NC(=O)[C@H]([C@@H](C)O)NC(=O)[C@H](CC(=O)O)NC1=O [[Ala25]ShK],,,,"IC50 [2]: 0.116 nM; IC50 [3]: 0.195 nM; IC50 [4, 5]: 0.408 nM"
CC[C@H](C)[C@@H]1NC(=O)[C@@H](NC(=O)[C@H](CO)NC(=O)[C@@H](N)CCCNC(=N)N)CSSC[C@@H](C(=O)O)NC(=O)[C@H]([C@@H](C)O)NC(=O)CNC(=O)[C@@H]2CSSC[C@@H]3NC(=O)[C@H](CCC(N)=O)NC(=O)[C@H](Cc4ccccc4)NC(=O)[C@H](C)NC(=O)[C@H]([C@@H](C)O)NC(=O)[C@H](CSSC[C@H](NC(=O)[C@H](Cc4ccccc4)NC(=O)[C@H](CO)NC(=O)[C@H](CC(C)C)NC(=O)[C@H](CCCNC(=N)N)NC(=O)[C@H](Cc4ccc(O)cc4)NC(=O)[C@H](CCCCN)NC(=O)[C@H](CCSC)NC(=O)[C@H](CO)NC(=O)[C@H](Cc4c[nH]cn4)NC(=O)[C@H](CCCCN)NC3=O)C(=O)N[C@@H](CCCNC(=N)N)C(=O)N[C@@H](CCCNC(=N)N)C(=O)N[C@@H]([C@@H](C)O)C(=O)N2)NC(=O)[C@H](CCCNC(=N)N)NC(=O)[C@H](CO)NC(=O)[C@H](CCCCN)NC(=O)[C@@H]2CCCN2C(=O)[C@H]([C@@H](C)CC)NC(=O)[C@H]([C@@H](C)O)NC(=O)[C@H](CC(=O)O)NC1=O [[Arg30]ShK],,,,"IC50 [2]: 0.04 nM; IC50 [3]: 0.014 nM; IC50 [4, 5]: 0.027 nM"
CC[C@H](C)[C@@H]1NC(=O)[C@@H](NC(=O)[C@H](CO)NC(=O)[C@@H](N)CCCNC(=N)N)CSSC[C@@H](C(=O)O)NC(=O)[C@H]([C@@H](C)O)NC(=O)CNC(=O)[C@@H]2CSSC[C@@H]3NC(=O)[C@H](CCC(N)=O)NC(=O)[C@H](Cc4ccccc4)NC(=O)[C@H](C)NC(=O)[C@H]([C@@H](C)O)NC(=O)[C@H](CSSC[C@H](NC(=O)[C@H](Cc4ccccc4)NC(=O)[C@H](CO)NC(=O)[C@H](CC(C)C)NC(=O)[C@H](CCCNC(=N)N)NC(=O)[C@H](Cc4ccc(O)cc4)NC(=O)[C@H](CCCCN)NC(=O)[C@H](CCSC)NC(=O)[C@H](CO)NC(=O)[C@H](Cc4c[nH]cn4)NC(=O)[C@H](CCCCN)NC3=O)C(=O)N[C@@H](CCCNC(=N)N)C(=O)N[C@@H](CCCCN)C(=O)N[C@@H]([C@@H](C)O)C(=O)N2)NC(=O)[C@H](CCCNC(=N)N)NC(=O)[C@H](CO)NC(=O)[C@H](CCC(=O)O)NC(=O)[C@@H]2CCCN2C(=O)[C@H]([C@@H](C)CC)NC(=O)[C@H]([C@@H](C)O)NC(=O)[C@H](CC(=O)O)NC1=O [[Glu9]ShK],,,,"IC50 [2]: 0.128 nM; IC50 [3]: 0.036 nM; IC50 ([4]; read-out: WB (IFNg) IC5- (nM, Avg)): 0.056 nM"
"CC[C@H](C)[C@@H]1NC(=O)[C@@H](NC(=O)[C@H](CO)NC(=O)[C@@H](N)CCCNC(=N)N)CSSC[C@@H](C(N)=O)NC(=O)[C@H]([C@@H](C)O)NC(=O)CNC(=O)[C@@H]2CSSC[C@@H]3NC(=O)[C@H](CCCCN)NC(=O)[C@H](Cc4ccccc4)NC(=O)[C@H](C)NC(=O)[C@H]([C@@H](C)O)NC(=O)[C@H](CSSC[C@H](NC(=O)[C@H](Cc4c[nH]c5ccccc45)NC(=O)[C@H](CO)NC(=O)[C@H](CC(C)C)NC(=O)[C@H](CCCNC(=N)N)NC(=O)[C@H](Cc4ccc(O)cc4)NC(=O)[C@H](CCCCN)NC(=O)[C@H](CCSC)NC(=O)[C@H](CO)NC(=O)[C@H](Cc4c[nH]cn4)NC(=O)[C@H](CCCCN)NC3=O)C(=O)N[C@@H](CCCCN)C(=O)N[C@@H](CCCCN)C(=O)N[C@@H]([C@@H](C)O)C(=O)N2)NC(=O)[C@H](CCCNC(=N)N)NC(=O)[C@H](CO)NC(=O)[C@H](CCCCN)NC(=O)[C@@H]2CCCN2C(=O)[C@H]([C@@H](C)CC)NC(=O)[C@H]([C@@H](C)O)NC(=O)[C@H](CC(=O)O)NC1=O [[Lys16,29;Trp27]ShK-amide]",,,,"IC50 [2]: 0.121 nM; IC50 [3]: 0.264 nM; IC50 [4, 5]: 0.606 nM"
"CCCC[C@@H]1NC(=O)[C@H](CO)NC(=O)[C@H](Cc2c[nH]cn2)NC(=O)[C@H](CCC(=O)O)NC(=O)[C@@H]2CSSC[C@@H]3NC(=O)[C@H]([C@@H](C)O)NC(=O)[C@H](CCCCN)NC(=O)[C@H](CCCNC(=N)N)NC(=O)[C@H](CSSC[C@H](NC(=O)[C@H](CCCNC(=N)N)NC(=O)[C@H](CO)NC(=O)[C@H](CCCCN)NC(=O)[C@@H]4CCCN4C(=O)[C@H]([C@@H](C)CC)NC(=O)[C@H]([C@@H](C)O)NC(=O)[C@H](CC(=O)O)NC(=O)[C@H]([C@@H](C)CC)NC(=O)[C@@H](NC(=O)[C@H](CO)NC(=O)[C@@H](N)CCCNC(=N)N)CSSC[C@@H](C(N)=O)NC(=O)[C@H]([C@@H](C)O)NC(=O)CNC3=O)C(=O)N[C@@H]([C@@H](C)O)C(=O)N[C@@H](C)C(=O)N[C@@H](C)C(=O)N[C@@H](CCCCN)C(=O)N2)NC(=O)[C@H](Cc2ccccc2)NC(=O)[C@H](CO)NC(=O)[C@H](CC(C)C)NC(=O)[C@H](CCCNC(=N)N)NC(=O)[C@H](Cc2ccc(O)cc2)NC(=O)[C@H](CCCCN)NC1=O [[Glu18,Ala15,Lys16,Nle21]ShK-amide]",,,,"IC50 [2]: 0.202 nM; IC50 [3]: 1.35 nM; IC50 [4, 5]: 1.29 nM"
"CCC[C@@H]1NC(=O)[C@H](CO)NC(=O)[C@H](Cc2c[nH]cn2)NC(=O)[C@H](CCCCN)NC(=O)[C@@H]2CSSC[C@@H]3NC(=O)[C@H]([C@@H](C)O)NC(=O)[C@H](CCCCN)NC(=O)[C@H](CCCNC(=N)N)NC(=O)[C@H](CSSC[C@H](NC(=O)[C@H](CCCNC(=N)N)NC(=O)[C@H](CO)NC(=O)[C@H](CCCCN)NC(=O)[C@@H]4CCCN4C(=O)[C@H]([C@@H](C)CC)NC(=O)[C@H]([C@@H](C)O)NC(=O)[C@H](CC(=O)O)NC(=O)[C@H]([C@@H](C)CC)NC(=O)[C@@H](NC(=O)[C@H](CO)NC(=O)[C@@H](N)CCCNC(=N)N)CSSC[C@@H](C(=O)NCCC(=O)O)NC(=O)[C@H]([C@@H](C)O)NC(=O)CNC3=O)C(=O)N[C@@H]([C@@H](C)O)C(=O)N[C@@H](C)C(=O)N[C@@H](Cc3ccccc3)C(=O)N[C@@H](CCCCN)C(=O)N2)NC(=O)[C@H](Cc2ccccc2)NC(=O)[C@H](CO)NC(=O)[C@H](CC(C)C)NC(=O)[C@H](CCCNC(=N)N)NC(=O)[C@H](Cc2ccc(O)cc2)NC(=O)[C@H](CCCCN)NC1=O [[Lys16,Nva21]ShK-betaAla]",,,,"IC50 [2]: 12.6 nM; IC50 [3]: 0.304 nM; IC50 [4, 5]: 0.231 nM"
"CC[C@H](C)[C@@H]1NC(=O)[C@@H](NC(=O)[C@H](CO)NC(=O)[C@@H](N)CCCNC(=N)N)CSSC[C@@H](C(N)=O)NC(=O)[C@H]([C@@H](C)O)NC(=O)CNC(=O)[C@@H]2CSSC[C@@H]3NC(=O)[C@H](CCCCN)NC(=O)[C@H](C)NC(=O)[C@H](C)NC(=O)[C@H]([C@@H](C)O)NC(=O)[C@H](CSSC[C@H](NC(=O)[C@H](Cc4ccccc4)NC(=O)[C@H](CO)NC(=O)[C@H](CC(C)C)NC(=O)[C@H](CCCNC(=N)N)NC(=O)[C@H](Cc4ccc(O)cc4)NC(=O)[C@H](CCCCN)NC(=O)[C@H](CCSC)NC(=O)[C@H](CO)NC(=O)[C@H](Cc4c[nH]cn4)NC(=O)[C@H](CCCCN)NC3=O)C(=O)N[C@@H](CCCNC(=N)N)C(=O)N[C@@H](CCCCN)C(=O)N[C@@H]([C@@H](C)O)C(=O)N2)NC(=O)[C@H](CCCNC(=N)N)NC(=O)[C@H](CO)NC(=O)[C@H](CCCCN)NC(=O)[C@@H]2CCCN2C(=O)[C@H]([C@@H](C)CC)NC(=O)[C@H]([C@@H](C)O)NC(=O)[C@H](CC(=O)O)NC1=O [[Ala15,Lys16]ShK-amide]",,,,"IC50 [2]: 0.091 nM; IC50 [3]: 0.167 nM; IC50 [4, 5]: 0.193 nM"
